The source of these data is PMC8906176.

Holding throughout (experiment): BLI
In assay [1] the target is C12b-AM1 monobody.
Assay [2] concerns the target C12b-AM2 monobody.
Assay [3] addresses C4-AM1 monobody.
Assay [4] deals with C4-AM2 monobody.
Assay [5] concerns the target C6b-AM2 monobody.

pKd: −log10 of the molar value.

With “SARS-CoV-2 S protein receptor-binding domain, wild type (B.1.1) (from UniProt P0DTC2) (domain or fragment)”, the pKd was 9.00 in assay [1]; > 11.00 in assay [2]; 9.96 in assay [3]; > 11.00 in assay [4]; 9.44 in assay [5].
